Among the data in publication doi:10.1101/219642 (bioRxiv, 2017) are binding result and Kd values, retold here.

What is called Kd is the constant that tells how readily two partners part at equilibrium. Higher therefore signals lower affinity.

Assay [1] concerns the target ubiquitin on ubiquitin-coated agarose beads (UniProt P0CG47 1-76, coupled to agarose beads). Nature of the assay: pull-down.
The target of assay [2] is Purified bovine ubiquitin (bovine, UniProt P0CG53 1-76). Nature of the assay: SPR. (SPR reads the build-up and loss of mass on a sensor chip optically.)

B1: GST fusion protein of the constitutively open mutant of the cytoplasmic region of Stx3 (L165A/E166A) (domain or fragment)
chain: MKDRLEQLKAKQLTQDDDTDEVEIAIDNTAFMDEFFSEIEETRLNIDKISEHVEEAKKLYSIILSAPIPEPKTKDDLEQLTTEIKKRANNVRNKLKSMEKHIEEDEVRSSADLRIRKSQHSVLSRKFVEVMTKYNEAQVDFRERSKGRIQRQLEITGKKTTDEEAAEMLESGNPAIFTSGIIDSQISKQALSEIEGRHKDIVRLESSIKELHDMFMDIAMLVENQGEMLDNIELNVMHTVDHVEKARDETKRAMKYQGQARKKLI
On to B1, for which, in assay [1], the binding result is listed as “binds”.

B2: GST fusion protein containing only the Habc domain (1-146) of Stx3 (domain or fragment)
chain: MKDRLEQLKAKQLTQDDDTDEVEIAIDNTAFMDEFFSEIEETRLNIDKISEHVEEAKKLYSIILSAPIPEPKTKDDLEQLTTEIKKRANNVRNKLKSMEKHIEEDEVRSSADLRIRKSQHSVLSRKFVEVMTKYNEAQVDFRERSK
B2 yielded a Kd in assay [2] of 1360 µM. Also, the binding result in assay [1] is given as “binds”.
